T1: FUS SYGQ LC (FUS 1-163), N-terminal low complexity domain (UniProt P35637 1-163)
T1 sequence (looked up): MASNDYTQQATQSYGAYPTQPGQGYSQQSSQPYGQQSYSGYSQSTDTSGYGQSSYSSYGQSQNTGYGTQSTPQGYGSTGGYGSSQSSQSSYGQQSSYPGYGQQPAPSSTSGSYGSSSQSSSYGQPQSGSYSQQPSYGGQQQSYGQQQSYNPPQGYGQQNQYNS

B1: FUS RGG3 (453-507) (domain or fragment, UniProt P35637 453-507, looked up)
chain: DGPGGGPGGSHMGGNYGDDRRGGRGGYDRGGYRGRGGDRGGFRGGRGGGDRGGFG
B2: 488-labeled FUS SYGQ LC (FUS 1-163 labelled with DyLight 488 NHS ester) (domain or fragment, UniProt P35637 1-163, looked up)
chain: T1 sequence (looked up)
modifications: DyLight 488 (NHS ester labelling)

What was measured:
[1] = molecular target: T1, FUS SYGQ LC (FUS 1-163), N-terminal low …; test: intermolecular NOE NMR of a condensed phase
[2] = molecular target: T1, FUS SYGQ LC (FUS 1-163), N-terminal low …; test: co-sedimentation

Row | Binder | binding result [1] | binding result [2]
1 | B1 | binds | 
2 | B2 |  | binds
